Source: PMC8528823 (2021)

Target: SARS-CoV-2 WT RBD (SARS-CoV-2, UniProt P0DTC2 319-541)
Assay: SPR

B1: Mouse Fc (mFc) tagged mink ACE2 (Fc fusion)
chain: QSTTEDLAKTFLEKFNYEAEELSYQNSLASWNYNTNITDENIQKMNIAGAKWSAFYEEESQHAKTYPLEEIQDPIIKRQLRALQQSGSSVLSADKRERLNTILNAMSTIYSTGKACNPNNPQECLLLEPGLDDIMENSKDYNERLWAWEGWRSEVGKQLRPLYEEYVALKNEMARANNYEDYGDYWRGDYEEEWADGYNYSRNQLIEDVEHTFTQIKPLYEHLHAYVRAKLMDAYPSRISPTGCLPAHLLGDMWGRFWTNLYPLMVPFGQKPNIDVTDAMVNQSWDARRIFKEAEKFFVSVGLPNMTEGFWQNSMLTEPGDNRKVVCHPTAWDLGKHDFRIKMCTKVTMDDFLTAHHEMGHIQYDMAYAAQPFLLRNGANEGFHEAVGEIMSLSAATPNHLKNIGLLPPDFSEDSETDINFLLKQALTIVGTLPFTYMLEKWRWMVFKGEIPKEQWMQKWWEMKRDIVGVVEPLPHDETYCDPAALFHVANDYSFIRYYTRTIYQFQFQEALCQIAKHEGPLYKCDISNSREAGQKLHEMLSLGRSKPWTFALERVVGAKTMDVRPLLNYFEPLFTWLKEQNRNSFVGWNTDWSPYADQSIKVRISLKSALGEKAYEWNDNEMYFFQSSIAYAMREYFSKVKKQTIPFVDKDVRVSDLKPRISFNFIVTSPENMSDIIPRADVEEAIRKSRGRINDAFRLDDNSLEFLGIQPTLEPPYQPPVT
koff: 1.65 s⁻¹
